Laboratory results: patent publication US20250043302A1, “MUTATED HYDROXYPHENYLPYRUVATE DIOXYGENASE POLYPEPTIDE, AND CODING GENE AND USE THEREOF” (BEIJING DABEINONG BIOTECHNOLOGY CO., LTD., priority 2021, published 2025)

Columns and labels:
[1] = test system: Arabidopsis thaliana T1 plants; assay: Topramezone tolerance of transgenic Arabidopsis thaliana T1 plants (spray, bleached leaf area grade, damage score); assay type: in vivo; details: for Classification and statistics of the grade of pesticide damage: Grade 0 / Classification and statistics of the grade of pesticide damage: Grade 1 / Classification and statistics of the grade of pesticide damage: Grade 2 / Classification and statistics of the grade of pesticide damage: Grade 3: number of plants; for Grade 0 (classification and statistics of the grade of pesticide damage; number of plants) / Grade 1 (classification and statistics of the grade of pesticide damage; number of plants) / Grade 2 (classification and statistics of the grade of pesticide damage; number of plants) / Grade 3 (classification and statistics of the grade of pesticide damage; number of plants): 16 plants
From the text: T1 transformants were initially selected from the untransformed seeds using a glufosinate selection scheme. The Arabidopsis thaliana T1 plants (AsHPPD-02) into which the AsHPPD-02 nucleotide sequence was introduced, the Arabidopsis thaliana T1 plants (AsHPPDm-F372A-02) into which the AsHPPDm-F372A-02 nucleotide sequence was introduced, the Arabidopsis thaliana T1 plants (AsHPPDm-F383W-02) into which the AsHPPDm-F383W-02 nucleotide sequence was introduced, the Arabidopsis thaliana T1 plants (AsHPPDm-F372A-F383W-02) into which the AsHPPDm-F372A-F383W-02 nucleotide sequence was introduced, the Arabidopsis thaliana T1 plants (DBN11726N) into which the control recombinant expression vector DBN11726N was introduced, and the wild-type Arabidopsis thaliana plants (CK) (18 days after sowing) were sprayed respectively with topramezone at three concentrations (100 g ai/ha (four-fold field concentration, 4×), 200 g ai/ha (eight-fold field concentration, 8×), and 0 g ai/ha (water, 0×)), isoxaflutole at three concentrations (140 g ai/ha (two-fold field concentration, 2×), 280 g ai/ha (four-fold field concentration, 4×), and 0 g ai/ha (water, 0×)), and mesotrione at three concentrations (210 g ai/ha (two-fold field concentration, […]), 420 g ai/ha (four-fold field concentration, 4×), and 0 g ai/ha (water, 0×)), to determine the tolerance of Arabidopsis thaliana to the herbicides. The degree of damage caused by the herbicide was measured for each plant according to the proportion of bleached leaf area (the proportion of bleached leaf area=bleached leaf area/total leaf area×100%) 7 days after spraying (7 DAT): the case where there is basically no bleached phenotype is defined as grade 0, the case where the proportion of bleached leaf area is less than 50% is defined as grade 1, the case where the proportion of bleached leaf area is more than 50% is defined as grade 2, and the case where the proportion of bleached leaf area is 100% grade is defined as grade 3.
According to the method as described above in point 6 of Example 1, the aforementioned Arabidopsis thaliana T1 plants and wild-type Arabidopsis thaliana plants (CK) (18 days after sowing) were sprayed respectively with topramezone at three concentrations (25 g ai/ha (one-fold field concentration, 1×). 100 g ai/ha (four-fold field concentration, 4×), and 0 g ai/ha (water, 0×)), isoxaflutole at three concentrations (35 g ai/ha (half-fold field concentration, 0.5×). 70 g ai/ha (one-fold field concentration, 1×), and 0 g ai/ha (water, 0×)), and mesotrione at three concentrations (52.5 g ai/ha (half-fold field concentration, 0.5×), 105 g ai/ha (one-fold field concentration, 1×), and 0 g ai/ha (water, 0×)) to detect the tolerance of Arabidopsis thaliana to the herbicides.
According to the method as described above in point 6 of Example 1, the aforementioned Arabidopsis thaliana T1 plants and wild-type Arabidopsis thaliana plants (CK) (18 days after sowing) were sprayed with topramezone at three different concentrations (i.e., 100 g ai/ha (four-fold field concentration, 4×), 200 g ai/ha (eight-fold field concentration, 8×) and 0 g ai/ha (water, 0×)), isoxaflutole at three different concentrations (i.e., 140 g ai/ha (two-fold field concentration, 2×), 280 g ai/ha (four-fold field concentration, 4×) and 0 g ai/ha (water, 0×)), and mesotrione at three different concentrations (i.e., 210 g ai/ha (two-fold field concentration, 2×), 420 g ai/ha (four-fold field concentration, 4×) and 0 g ai/ha (water, 0×)) respectively to detect the herbicide tolerance of Arabidopsis thaliana. […]

[2] = test system: Arabidopsis thaliana T1 plants; assay: Isoxaflutole tolerance of transgenic Arabidopsis thaliana T1 plants (spray, bleached leaf area grade, damage score); assay type: in vivo;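 for Scores: Weighted damage index from 0 to 100 where higher means more damage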
How it was run: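 Damage was assessed by bleaching grade (0 none; 1 <50%; 2 >50%; 3 100% of leaf area) one week after spraying. Sprays on 18-day-old T1 and wild-type plants used field-rate multiples: topramezone 25–200, isoxaflutole 35–280, mesotrione 52.5–420 g ai/ha.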

[3] = topramezone 100 g ai/ha (4×), 7 DAT, Table 1
[4] = topramezone 200 g ai/ha (8×), 7 DAT, Table 1
[5] = topramezone 100 g ai/ha (4x field concentration), Arabidopsis thaliana T1 plants
[6] = topramezone 200 g ai/ha (8x field concentration), Arabidopsis thaliana T1 plants
[7] = isoxaflutole 140 g ai/ha (2x field concentration), Arabidopsis thaliana T1 plants
[8] = isoxaflutole 140 g ai/ha (2x field concentration), Arabidopsis thaliana T1 plants, 16 plants

B1: AsHPPDm-F383W-02: nucleotide sequence encoding Avena sativa HPPD with F383W; vector DBN11729 (nucleic acid)
DNA: ATGCCACCTACTCCAGCTACAGCTACTGGTGCTGCTGCTGCTGCCGTTACTCCTGAGCACGCTGCCAGGTCATTCCCCAGGGTGGTTCGCGTGAACCCCAGATCTGATAGGTTCCCAGTTCTGAGCTTCCACCATGTTGAGCTGTGGTGCGCTGATGCTGCTTCTGCTGCTGGCAGGTTCTCTTTCGCTCTTGGTGCTCCACTCGCTGCTAGATCTGATCTGTCTACAGGAAATAGCGCTCATGCCTCACTCCTGCTTCGCTCAGGTGCTTTGGCCTTCCTCTTCACCGCTCCATATGCTCCCCCACCTCAGGAGGCTGCTACTGCTGCTGCTACAGCCTCCATTCCAAGCTTCTCAGCTGATGCCGCTAGAACCTTCGCTGCTGCTCATGGACTTGCCGTGAGGTCTGTTGGTGTTCGCGTGGCTGATGCTGCTGAGGCTTTCAGAGTTTCCGTTGCCGGCGGAGCTAGGCCAGCTTTCGCTCCTGCTGATTTGGGACATGGTTTCGGCCTGGCTGAGGTTGAGCTTTACGGTGACGTGGTTCTCCGCTTCGTGTCTTACCCAGATGAGACTGACCTGCCTTTCCTTCCCGGCTTCGAGAGAGTTTCCTCTCCTGGTGCCGTGGATTACGGCCTGACAAGGTTCGACCACGTGGTTGGAAACGTTCCCGAGATGGCTCCAGTGATCGATTACATGAAGGGCTTCCTTGGATTCCATGAGTTCGCCGAGTTCACTGCTGAGGACGTGGGAACCACTGAGTCCGGTTTGAACTCTGTGGTTCTCGCCAACAATTCTGAGGCTGTTTTGCTCCCTCTGAATGAGCCTGTGCATGGAACCAAGAGGAGAAGCCAGATTCAAACTTACCTGGAGTACCACGGTGGCCCTGGAGTTCAGCATATCGCCCTTGCTTCTAATGATGTGTTGCGCACACTCAGAGAGATGCGCGCCAGAACCCCCATGGGAGGTTTCGAGTTCATGGCCCCACCACAGGCTAAGTACTACGAGGGCGTTAGAAGGATTGCTGGAGACGTGTTGAGCGAGGAGCAGATCAAGGAGTGCCAAGAGCTGGGTGTTCTTGTGGATAGGGATGACCAGGGCGTTCTGCTTCAAATTTTCACTAAGCCAGTGGGCGACCGCCCTACATTCTGGCTTGAGATGATTCAAAGAATCGGCTGCATGGAGAAGGATGAGGTTGGACAGGAGTACCAAAAGGGCGGATGCGGTGGCTTCGGAAAGGGTAACTTCAGCGAGTTGTTCAAGTCAATCGAGGACTACGAGAAGAGCCTCGAGGTGAAGCAGTCAGTGGTTGCCCAAAAGTCCTGA
modifications: AsHPPDm-F383W-02 Nucleotide Sequence
notes: vector DBN11729
How did the “Classification and statistics of the grade of pesticide damage: Grade 0” value [1, 3] turn out when B1 was run?
Its value is 16.

And the “Classification and statistics of the grade of pesticide damage: Grade 1” value [1, 3]?
Its value is 0.

And the “Classification and statistics of the grade of pesticide damage: Grade 2” value [1, 3]?
The value was 0.

What about the “Classification and statistics of the grade of pesticide damage: Grade 3” value [1, 3] of the same molecule?
The value was 0.

And the “Classification and statistics of the grade of pesticide damage: Grade 0” value [1, 4]?
Its value is 16.

What about the “Classification and statistics of the grade of pesticide damage: Grade 1” value [1, 4] of the same molecule?
Its value is 0.

And the “Classification and statistics of the grade of pesticide damage: Grade 2” value [1, 4]?
The value was 0.

And the “Classification and statistics of the grade of pesticide damage: Grade 3” value [1, 4]?
The value was 0.

And the Scores ([1]; pesticide damage score 0-100, topramezone 100 g ai/ha (4×), 7 DAT, Table 1)?
Its Scores is 0.

What about the Scores ([1]; pesticide damage score 0-100, topramezone 200 g ai/ha (8×), 7 DAT, Table 1) of the same molecule?
The Scores was 0.

And the Resistance evaluation [1, 5]?
The Resistance evaluation was “Highly resistant”.

What about the Scores [1, 5] of the same molecule?
Its Scores is 0.

And the “Grade 0 (classification and statistics of the grade of pesticide damage; number of plants)” value [1, 5]?
The value was 16.

What about the “Grade 1 (classification and statistics of the grade of pesticide damage; number of plants)” value [1, 5] of the same molecule?
Its value is 0.

And the “Grade 2 (classification and statistics of the grade of pesticide damage; number of plants)” value [1, 5]?
Its value is 0.

And the “Grade 3 (classification and statistics of the grade of pesticide damage; number of plants)” value [1, 5]?
The value was 0.

And the Resistance evaluation [1, 3]?
Its Resistance evaluation is “highly resistant (highly resistant plants (scores 0-15))”.

And the Resistance evaluation [1, 6]?
Its Resistance evaluation is “Highly resistant”.

What about the Scores [1, 6] of the same molecule?
Its Scores is 0.

What about the “Grade 0 (classification and statistics of the grade of pesticide damage; number of plants)” value [1, 6] of the same molecule?
The value was 16.

And the “Grade 1 (classification and statistics of the grade of pesticide damage; number of plants)” value [1, 6]?
Its value is 0.

What about the “Grade 2 (classification and statistics of the grade of pesticide damage; number of plants)” value [1, 6] of the same molecule?
The value was 0.

What about the “Grade 3 (classification and statistics of the grade of pesticide damage; number of plants)” value [1, 6] of the same molecule?
The value was 0.

What about the Resistance evaluation [1, 4] of the same molecule?
The Resistance evaluation was “highly resistant (highly resistant plants (scores 0-15))”.

What about the “tolerance to topramezone (resistance class)” value ([1]; topramezone at four-fold or eight-fold field concentration) of the same molecule?
Its value is “highly-resistant”.

What about the “tolerance to isoxaflutole (in words)” value ([2]; in vivo) of the same molecule?
The value was “different degrees of tolerance”.

What about the Resistance evaluation [2, 7] of the same molecule?
Its Resistance evaluation is “Moderately”.

What about the Scores [2, 7] of the same molecule?
Its Scores is 21.

What about the “Grade 0 (classification and statistics of the grade of pesticide damage; number of plants)” value [2, 8] of the same molecule?
Its value is 6.

And the “Grade 1 (classification and statistics of the grade of pesticide damage; number of plants)” value [2, 8]?
Its value is 10.

And the “Grade 2 (classification and statistics of the grade of pesticide damage; number of plants)” value [2, 8]?
The value was 0.

What about the “Grade 3 (classification and statistics of the grade of pesticide damage; number of plants)” value [2, 8] of the same molecule?
Its value is 0.

What about the Resistance evaluation ([2]; isoxaflutole 140 g ai/ha (2×), 7 DAT, Table 2) of the same molecule?
Its Resistance evaluation is “moderately”.
